Measurements as given in paper doi:10.1101/2020.02.02.931204, “Fast Transport of RNA Granules by Direct Interactions with KIF5A/KLC1 Motors Prevents Axon Degeneration” (bioRxiv, 2020).

Biological target: T1, KLC1 (TPR1-6) fragment, human KNS2 residues 205-501 (human, UniProt Q07866 205-501)
T1 construct: KLC1 (KNS2), human, residues 205-501 (TPR1-6), in the pET28MHL vector; No removal of the tag is described; also called purified human KLC1; source: E. coli BL21 (DE3), purified (Ni-NTA, Superdex-200 gel filtration)
Assay: ITC; KLC1 (TPR1-6) at 20μM in the cell, SFPQ peptide at 200μM in the syringe, 30 injections of 4μL; 20mM HEPES pH 7.5, 150mM NaCl, 0.5mM TCEP, 2% DMSO, 25°C; single site model
Details: both partners purified

T1 sequence (Q07866 205-501): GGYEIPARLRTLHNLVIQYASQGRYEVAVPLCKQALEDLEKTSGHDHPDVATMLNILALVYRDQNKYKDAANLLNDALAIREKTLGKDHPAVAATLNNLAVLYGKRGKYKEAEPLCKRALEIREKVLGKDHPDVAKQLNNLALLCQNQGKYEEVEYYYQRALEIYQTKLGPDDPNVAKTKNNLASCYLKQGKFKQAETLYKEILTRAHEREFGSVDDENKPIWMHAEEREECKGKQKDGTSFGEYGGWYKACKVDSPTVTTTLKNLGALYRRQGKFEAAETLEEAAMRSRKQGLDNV

B1: SFPQ WT peptide spanning the Y-acidic motif (peptide)
peptide: ESEMEDAYHEHQANLLR
notes: SFPQ, human, stretch of the coiled coil domain with the Y-acidic motif; the underlined Y is Y527; also called long SFPQ peptide; WT SFPQ; source: synthetic peptide (KE BioChem)
- Kd: 3.8 ± 2.3 µM
- stoichiometry N: 1
